Legend:
[1] = target: anti-HER2 (trastuzumab) heavy chain, produced alone; test: SDS-PAGE
[2] = target: anti-HER2 (trastuzumab) heavy chain, produced alone; test: HPLC-MS
[3] = target: anti-HER2 (trastuzumab) light chain, produced alone; test: SDS-PAGE
[4] = target: anti-HER2 (trastuzumab) light chain, produced alone; test: SEC
[5] = target: anti-HER2 (trastuzumab) heavy chain, produced alone; test: SEC

| stoichiometry N [1] | stoichiometry N [2] | percent of LC dimers covalently bonded (42 KDa band) [3] | stoichiometry N [4] | % Area of monomer mAb (SEC-HPLC) [5] | Substance |
| --- | --- | --- | --- | --- | --- |
| 2 | 2 |  |  |  | anti-HER2 (trastuzumab) heavy chain, produced alone (domain or fragment) |
|  |  | 55% | 2 | 90.1 % Area | anti-HER2 (trastuzumab) light chain, produced alone (domain or fragment) |

Reference: article PMC6973308
